Measurements from the supplement of paper PMC10567573.

B1: USP39 (parent)
chain: FQGSMRIFTKKLPHPDLPAEEKEQ

Variants of: B1
Assay: protein stability index of a GFP-peptide fusion (GPS, HEK-293T) (PSI 1-6); higher = more stable
Details: c terminus: a fixed tail appended
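Further: lentivirally expressed fusions sorted by FACS into six bins by GFP to DsRed ratio, PSI derived from sequencing read proportions per bin multiplied by bin number.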

Q: With FQGSMRIFTKKLPHPDLPAEKKEQ as the variant, how does the protein stability index read?
A: Its protein stability index is 1.91.

Q: With FQGSMRIFTKKLPHPDLPAEMKEQ as the variant, how does the protein stability index read?
A: The protein stability index was 2.23.

Q: Which protein stability index does the source give for FQGSMRIFTKKLPHPDLPAEGKEQ here?
A: The protein stability index was 1.88.

Q: Which protein stability index does the source give for FQGSMRIFTKKLPHPDLPAEPKEQ here?
A: Its protein stability index is 2.02.

Q: Which protein stability index does the source give for FQGSMRIFTKKLPHPDLPAEFKEQ here?
A: The protein stability index was 2.29.

Q: For FQGSMRIFTKKLPHPDLPAESKEQ, which protein stability index is on record?
A: Its protein stability index is 2.12.

Q: With FQGSMRIFTKKLPHPDLPAEDKEQ as the variant, how does the protein stability index read?
A: Its protein stability index is 1.73.

Q: For FQGSMRIFTKKLPHPDLPAECKEQ, which protein stability index is on record?
A: The protein stability index was 1.54.

Q: Which protein stability index does the source give for FQGSMRIFTKKLPHPDLPAEYKEQ here?
A: Its protein stability index is 1.62.

Q: Which protein stability index does the source give for FQGSMRIFTKKLPHPDLPAETKEQ here?
A: Its protein stability index is 2.01.

Q: With FQGSMRIFTKKLPHPDLPAEQKEQ as the variant, how does the protein stability index read?
A: The protein stability index was 2.08.

Q: Which protein stability index does the source give for FQGSMRIFTKKLPHPDLPAEAKEQ here?
A: Its protein stability index is 1.81.

Q: With FQGYMRIFTKKLPHPDLPAEEKEQ as the variant, how does the protein stability index read?
A: Its protein stability index is 2.25.

Q: Which protein stability index does the source give for FQGWMRIFTKKLPHPDLPAEEKEQ here?
A: Its protein stability index is 2.04.

Q: Which protein stability index does the source give for FQGHMRIFTKKLPHPDLPAEEKEQ here?
A: The protein stability index was 1.69.

Q: Which protein stability index does the source give for FQGRMRIFTKKLPHPDLPAEEKEQ here?
A: Its protein stability index is 2.46.

Q: For FQGDMRIFTKKLPHPDLPAEEKEQ, which protein stability index is on record?
A: Its protein stability index is 1.33.

Q: For FQGPMRIFTKKLPHPDLPAEEKEQ, which protein stability index is on record?
A: Its protein stability index is 2.3.

Q: Which protein stability index does the source give for FQGMMRIFTKKLPHPDLPAEEKEQ here?
A: The protein stability index was 4.08.

Q: With FQGSMRIFTKKLPHCDLPAEEKEQ as the variant, how does the protein stability index read?
A: The protein stability index was 1.64.

Q: For FQGSMRIFTKKLPHWDLPAEEKEQ, which protein stability index is on record?
A: The protein stability index was 1.48.

Q: For FQGSMRIFTKKLPHKDLPAEEKEQ, which protein stability index is on record?
A: The protein stability index was 1.76.

Q: Which protein stability index does the source give for FQGSMRIFTKKLPHQDLPAEEKEQ here?
A: Its protein stability index is 1.74.

Q: For FQGSMRIFTKKLPHFDLPAEEKEQ, which protein stability index is on record?
A: Its protein stability index is 2.14.

Q: For FQGSMRIFTKKLPHPDLPAFEKEQ, which protein stability index is on record?
A: The protein stability index was 1.85.

Q: Which protein stability index does the source give for FQGSMRIFTKKLPHPDLPATEKEQ here?
A: The protein stability index was 2.17.

Q: For FQGSMRIFTKKLPHPDLPANEKEQ, which protein stability index is on record?
A: The protein stability index was 1.51.

Q: For FQGSMRIFTKKLPHPDLPAQEKEQ, which protein stability index is on record?
A: The protein stability index was 1.36.

Q: Which protein stability index does the source give for FQGSMRIFTKKLPHPDLPALEKEQ here?
A: Its protein stability index is 2.07.

Q: For FQGSMRIFTKKLPHPDLPAREKEQ, which protein stability index is on record?
A: The protein stability index was 1.95.

Q: With FQGSMRIFTKKLPHPDLPAYEKEQ as the variant, how does the protein stability index read?
A: Its protein stability index is 1.87.

Q: Which protein stability index does the source give for FQGSMRIFTKKLPHPDLPASEKEQ here?
A: The protein stability index was 2.16.

Q: Which protein stability index does the source give for FQGSMRIFTKKLPHPDLPAMEKEQ here?
A: Its protein stability index is 1.67.

Q: With FQGSMRIFTKKLPHPDLPAEEKFQ as the variant, how does the protein stability index read?
A: Its protein stability index is 1.38.

Q: With FQGSMRIFTKKLPHPDLPAEEKVQ as the variant, how does the protein stability index read?
A: Its protein stability index is 1.47.

Q: With FQGSMRIFTKKLPHPDLPAEEKDQ as the variant, how does the protein stability index read?
A: The protein stability index was 2.16.

Q: For FQGSMRIFTKKLPHPDLPAEEKTQ, which protein stability index is on record?
A: The protein stability index was 1.61.

Q: For FQGSMRIFTKKLPHPDLPAEEKYQ, which protein stability index is on record?
A: The protein stability index was 1.66.

Q: With FQGSMRIFTKKLPHPDLPAEEKAQ as the variant, how does the protein stability index read?
A: The protein stability index was 1.65.

Q: For FQGSMRIFTKKLPHPDLPAEEKPQ, which protein stability index is on record?
A: The protein stability index was 1.84.

Q: For FQGSMRIFTKKLPHPDLPAEEKHQ, which protein stability index is on record?
A: Its protein stability index is 2.18.

Q: With FQGSMRIFTKKLPHPDVPAEEKEQ as the variant, how does the protein stability index read?
A: The protein stability index was 1.88.

Q: Which protein stability index does the source give for FQGSMRIFTKKLPHPDHPAEEKEQ here?
A: Its protein stability index is 1.92.

Q: With FQGSMRIFTKKLPHPDAPAEEKEQ as the variant, how does the protein stability index read?
A: Its protein stability index is 1.99.

Q: Which protein stability index does the source give for FQGSMRIFTKKLPHPDRPAEEKEQ here?
A: Its protein stability index is 1.9.

Q: Which protein stability index does the source give for FQGSMRIFTKKLPHPDCPAEEKEQ here?
A: The protein stability index was 2.33.

Q: Which protein stability index does the source give for FQGSMRIFTKKLPHPDLPAEEMEQ here?
A: The protein stability index was 2.32.

Q: For FQGSMRIFTKKLPHPDLPAEEIEQ, which protein stability index is on record?
A: Its protein stability index is 1.94.

Q: For FQGSMRIFTKKLPHPDLPAEETEQ, which protein stability index is on record?
A: The protein stability index was 1.93.

Q: For FQGSMRIFTKKLPHPDLPAEEQEQ, which protein stability index is on record?
A: Its protein stability index is 1.62.

Q: For FQGSMRIFTKKLPHPDLPAEEGEQ, which protein stability index is on record?
A: The protein stability index was 2.13.

Q: For FQGSMRIFTKKLPHPDLPAEEFEQ, which protein stability index is on record?
A: The protein stability index was 1.96.

Q: With FQGSMRIFTKKLPHPDLPAEEREQ as the variant, how does the protein stability index read?
A: The protein stability index was 2.54.

Q: With FQGSMRIFTKKLPHPDLPAEESEQ as the variant, how does the protein stability index read?
A: The protein stability index was 1.88.

Q: With FQGSMRIRTKKLPHPDLPAEEKEQ as the variant, how does the protein stability index read?
A: Its protein stability index is 3.59.

Q: Which protein stability index does the source give for FQGSMRIMTKKLPHPDLPAEEKEQ here?
A: The protein stability index was 3.52.

Q: For FQGSMRIQTKKLPHPDLPAEEKEQ, which protein stability index is on record?
A: Its protein stability index is 3.77.

Q: With FQGSMRIDTKKLPHPDLPAEEKEQ as the variant, how does the protein stability index read?
A: Its protein stability index is 4.23.

Q: For FQGSMRIATKKLPHPDLPAEEKEQ, which protein stability index is on record?
A: The protein stability index was 3.6.

Q: Which protein stability index does the source give for FQGSMRIITKKLPHPDLPAEEKEQ here?
A: The protein stability index was 3.17.

Q: Which protein stability index does the source give for FQGSMRIVTKKLPHPDLPAEEKEQ here?
A: Its protein stability index is 3.04.

Q: For FQGSMRITTKKLPHPDLPAEEKEQ, which protein stability index is on record?
A: Its protein stability index is 3.89.

Q: For FQGSMRICTKKLPHPDLPAEEKEQ, which protein stability index is on record?
A: Its protein stability index is 3.05.

Q: With FQGSMRINTKKLPHPDLPAEEKEQ as the variant, how does the protein stability index read?
A: The protein stability index was 3.68.

Q: For FQGSMRIFTKKLPQPDLPAEEKEQ, which protein stability index is on record?
A: The protein stability index was 1.78.

Q: With FQGSMRIFTKKLPPPDLPAEEKEQ as the variant, how does the protein stability index read?
A: Its protein stability index is 1.86.

Q: With FQGSMRIFTKKLPGPDLPAEEKEQ as the variant, how does the protein stability index read?
A: The protein stability index was 1.77.

Q: With FQGSMRIFTKKLPRPDLPAEEKEQ as the variant, how does the protein stability index read?
A: The protein stability index was 1.93.

Q: Which protein stability index does the source give for FQGSMRIFTKKLPEPDLPAEEKEQ here?
A: The protein stability index was 2.05.

Q: For FQGSMRIFTKKLPNPDLPAEEKEQ, which protein stability index is on record?
A: Its protein stability index is 1.94.

Q: With FQGSMRIFTKKLPLPDLPAEEKEQ as the variant, how does the protein stability index read?
A: Its protein stability index is 2.36.

Q: With FQGSMRIFTKKLPIPDLPAEEKEQ as the variant, how does the protein stability index read?
A: The protein stability index was 1.84.

Q: Which protein stability index does the source give for FQGSMRIFTKKLPMPDLPAEEKEQ here?
A: The protein stability index was 2.36.

Q: Which protein stability index does the source give for FQGSMRIFTKKLPDPDLPAEEKEQ here?
A: Its protein stability index is 2.18.

Q: With FQGSMRIFTKKLMHPDLPAEEKEQ as the variant, how does the protein stability index read?
A: Its protein stability index is 2.12.

Q: With FQGSMRIFTKKLQHPDLPAEEKEQ as the variant, how does the protein stability index read?
A: The protein stability index was 1.9.

Q: Which protein stability index does the source give for FQGSMRIFTKKLYHPDLPAEEKEQ here?
A: Its protein stability index is 1.62.

Q: For FQGSMRIFTKKLSHPDLPAEEKEQ, which protein stability index is on record?
A: Its protein stability index is 1.61.

Q: With FQGSMRIFTKKLGHPDLPAEEKEQ as the variant, how does the protein stability index read?
A: Its protein stability index is 2.1.

Q: Which protein stability index does the source give for FQGSMRIFTKKLDHPDLPAEEKEQ here?
A: Its protein stability index is 1.72.

Q: For FQESMRIFTKKLPHPDLPAEEKEQ, which protein stability index is on record?
A: The protein stability index was 2.17.

Q: With FQPSMRIFTKKLPHPDLPAEEKEQ as the variant, how does the protein stability index read?
A: Its protein stability index is 2.53.

Q: With FQISMRIFTKKLPHPDLPAEEKEQ as the variant, how does the protein stability index read?
A: The protein stability index was 2.07.

Q: With FQWSMRIFTKKLPHPDLPAEEKEQ as the variant, how does the protein stability index read?
A: Its protein stability index is 1.85.

Q: Which protein stability index does the source give for FQMSMRIFTKKLPHPDLPAEEKEQ here?
A: The protein stability index was 2.67.

Q: For FQGSMRIFTKKLPHPNLPAEEKEQ, which protein stability index is on record?
A: Its protein stability index is 2.37.

Q: For FQGSMRIFTKKLPHPALPAEEKEQ, which protein stability index is on record?
A: The protein stability index was 1.7.

Q: For FQGSMRIFTKKLPHPKLPAEEKEQ, which protein stability index is on record?
A: The protein stability index was 1.94.

Q: Which protein stability index does the source give for FQGSMRIFTKKLPHPWLPAEEKEQ here?
A: The protein stability index was 2.67.

Q: For FQGSMRIFTKKLPHPRLPAEEKEQ, which protein stability index is on record?
A: Its protein stability index is 2.17.

Q: With FQGSMRIFTKKLPHPTLPAEEKEQ as the variant, how does the protein stability index read?
A: The protein stability index was 2.64.

Q: With FQGSMRIFTKKLPHPSLPAEEKEQ as the variant, how does the protein stability index read?
A: The protein stability index was 1.85.

Q: With FQGSMRIFTKKLPHPHLPAEEKEQ as the variant, how does the protein stability index read?
A: Its protein stability index is 2.12.

Q: Which protein stability index does the source give for FQGSMRIFTKKLPHPFLPAEEKEQ here?
A: Its protein stability index is 2.16.
